Values of other authors in patent US20170240926A1, “METHODS FOR PRENYLATION OF PEPTIDES AND THEIR USE IN OVER-PRODUCTION OF FARNESENE AND GERANYLGERANYL TERPENES” (University of North Texas, priority 2016, published 2017).

Target: FTase (Rattus norvegicus, UniProt Q02293+Q04631)
Conditions: 10 μM FPP, 0.4-10 μM dansylated peptide, 25-300 nM FTase, 50 mM HEPPSO pH 7.8, 25° C.

kfarn: 0.46 ± 0.05 s⁻¹
Substance: CFLS: peptide of the form dansyl-TKCxxx with C-terminal CFLS; SCAMPER
